B1: library; numbered along this chain (parent)
chain: MAAAAAAAAEQQSSNGPVKKSMREKAVERRSVNKEHNSNFKAGYIPIDEDRLHKTGLRGRKGNLAICVIILLFILAVINLIITLVIWAVIRIGPNGCDSMEFHESGLLRFKQVSDMGVIHPLYKSTVGGRRNENLVITGNNQPIVFQQGTTKLSVENNKTSITSDIGMQFFDPRTQNILFSTDYETHEFHLPSGVKSLNVQKASTERITSNATSDLNIKVDGRAIVRGNEGVFIMGKTIEFHMGGNMELKAENSIILNGSVMVSTTRLPSSSSGDQLGSGDWVRYKLCMCADGTLFKVQVTSQNMGCQISDNPCGNTH

Variants of: B1
Test: SGCB cell-surface expression functional score (HA stain, bin4 vs bin1, normalised to synonymous) (log10 ratio); higher = more cell-surface SGCB (functional)
Protocol: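 Deep mutational scan of full-length human SGCB (YFP-SGCB-HA, NNN codon sublibraries A-F) delivered by lentivirus at low MOI into ADG-HEK293 cells stably expressing SGCA, SGCD and SGCG. YFP-positive cells were stained for surface HA on unpermeabilized cells and FACS-sorted into bins. The functional score is log10(frequency in high bin 4 / frequency in low bin 1), normalised per chunk so that synonymous variants have mean 0 and SD 0.5. Scores are the median over codons and over duplicate biological replicates; scores below -0.5 are called non-functional. Scale: negative means deleterious.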

RAAAAAAAAEQQSSNGPVKKSMREKAVERRSVNKEHNSNFKAGYIPIDEDRLHKTGLRGRKGNLAICVIILLFILAVINLIITLVIWAVIRIGPNGCDSMEFHESGLLRFKQVSDMGVIHPLYKSTVGGRRNENLVITGNNQPIVFQQGTTKLSVENNKTSITSDIGMQFFDPRTQNILFSTDYETHEFHLPSGVKSLNVQKASTERITSNATSDLNIKVDGRAIVRGNEGVFIMGKTIEFHMGGNMELKAENSIILNGSVMVSTTRLPSSSSGDQLGSGDWVRYKLCMCADGTLFKVQVTSQNMGCQISDNPCGNTH [M1R] and AAAAAAAAAEQQSSNGPVKKSMREKAVERRSVNKEHNSNFKAGYIPIDEDRLHKTGLRGRKGNLAICVIILLFILAVINLIITLVIWAVIRIGPNGCDSMEFHESGLLRFKQVSDMGVIHPLYKSTVGGRRNENLVITGNNQPIVFQQGTTKLSVENNKTSITSDIGMQFFDPRTQNILFSTDYETHEFHLPSGVKSLNVQKASTERITSNATSDLNIKVDGRAIVRGNEGVFIMGKTIEFHMGGNMELKAENSIILNGSVMVSTTRLPSSSSGDQLGSGDWVRYKLCMCADGTLFKVQVTSQNMGCQISDNPCGNTH [M1A] are within 0.2 log units of each other in “SGCB cell-surface expression functional score (log10)” value: -0.06 for the first, 0.12 for the second.

Compared with DAAAAAAAAEQQSSNGPVKKSMREKAVERRSVNKEHNSNFKAGYIPIDEDRLHKTGLRGRKGNLAICVIILLFILAVINLIITLVIWAVIRIGPNGCDSMEFHESGLLRFKQVSDMGVIHPLYKSTVGGRRNENLVITGNNQPIVFQQGTTKLSVENNKTSITSDIGMQFFDPRTQNILFSTDYETHEFHLPSGVKSLNVQKASTERITSNATSDLNIKVDGRAIVRGNEGVFIMGKTIEFHMGGNMELKAENSIILNGSVMVSTTRLPSSSSGDQLGSGDWVRYKLCMCADGTLFKVQVTSQNMGCQISDNPCGNTH [M1D], YAAAAAAAAEQQSSNGPVKKSMREKAVERRSVNKEHNSNFKAGYIPIDEDRLHKTGLRGRKGNLAICVIILLFILAVINLIITLVIWAVIRIGPNGCDSMEFHESGLLRFKQVSDMGVIHPLYKSTVGGRRNENLVITGNNQPIVFQQGTTKLSVENNKTSITSDIGMQFFDPRTQNILFSTDYETHEFHLPSGVKSLNVQKASTERITSNATSDLNIKVDGRAIVRGNEGVFIMGKTIEFHMGGNMELKAENSIILNGSVMVSTTRLPSSSSGDQLGSGDWVRYKLCMCADGTLFKVQVTSQNMGCQISDNPCGNTH [M1Y] is lower in “SGCB cell-surface expression functional score (log10)” value: 0.69 for the first, -0.02 for the second.

Going from QAAAAAAAAEQQSSNGPVKKSMREKAVERRSVNKEHNSNFKAGYIPIDEDRLHKTGLRGRKGNLAICVIILLFILAVINLIITLVIWAVIRIGPNGCDSMEFHESGLLRFKQVSDMGVIHPLYKSTVGGRRNENLVITGNNQPIVFQQGTTKLSVENNKTSITSDIGMQFFDPRTQNILFSTDYETHEFHLPSGVKSLNVQKASTERITSNATSDLNIKVDGRAIVRGNEGVFIMGKTIEFHMGGNMELKAENSIILNGSVMVSTTRLPSSSSGDQLGSGDWVRYKLCMCADGTLFKVQVTSQNMGCQISDNPCGNTH [M1Q] to GAAAAAAAAEQQSSNGPVKKSMREKAVERRSVNKEHNSNFKAGYIPIDEDRLHKTGLRGRKGNLAICVIILLFILAVINLIITLVIWAVIRIGPNGCDSMEFHESGLLRFKQVSDMGVIHPLYKSTVGGRRNENLVITGNNQPIVFQQGTTKLSVENNKTSITSDIGMQFFDPRTQNILFSTDYETHEFHLPSGVKSLNVQKASTERITSNATSDLNIKVDGRAIVRGNEGVFIMGKTIEFHMGGNMELKAENSIILNGSVMVSTTRLPSSSSGDQLGSGDWVRYKLCMCADGTLFKVQVTSQNMGCQISDNPCGNTH [M1G], the “SGCB cell-surface expression functional score (log10)” value falls from 0.35 to 0.1.

First: VAAAAAAAAEQQSSNGPVKKSMREKAVERRSVNKEHNSNFKAGYIPIDEDRLHKTGLRGRKGNLAICVIILLFILAVINLIITLVIWAVIRIGPNGCDSMEFHESGLLRFKQVSDMGVIHPLYKSTVGGRRNENLVITGNNQPIVFQQGTTKLSVENNKTSITSDIGMQFFDPRTQNILFSTDYETHEFHLPSGVKSLNVQKASTERITSNATSDLNIKVDGRAIVRGNEGVFIMGKTIEFHMGGNMELKAENSIILNGSVMVSTTRLPSSSSGDQLGSGDWVRYKLCMCADGTLFKVQVTSQNMGCQISDNPCGNTH [M1V]
Second: FAAAAAAAAEQQSSNGPVKKSMREKAVERRSVNKEHNSNFKAGYIPIDEDRLHKTGLRGRKGNLAICVIILLFILAVINLIITLVIWAVIRIGPNGCDSMEFHESGLLRFKQVSDMGVIHPLYKSTVGGRRNENLVITGNNQPIVFQQGTTKLSVENNKTSITSDIGMQFFDPRTQNILFSTDYETHEFHLPSGVKSLNVQKASTERITSNATSDLNIKVDGRAIVRGNEGVFIMGKTIEFHMGGNMELKAENSIILNGSVMVSTTRLPSSSSGDQLGSGDWVRYKLCMCADGTLFKVQVTSQNMGCQISDNPCGNTH [M1F]
The “SGCB cell-surface expression functional score (log10)” value of the first is higher: 0.28 for the first, -0.28 for the second.

Going from LAAAAAAAAEQQSSNGPVKKSMREKAVERRSVNKEHNSNFKAGYIPIDEDRLHKTGLRGRKGNLAICVIILLFILAVINLIITLVIWAVIRIGPNGCDSMEFHESGLLRFKQVSDMGVIHPLYKSTVGGRRNENLVITGNNQPIVFQQGTTKLSVENNKTSITSDIGMQFFDPRTQNILFSTDYETHEFHLPSGVKSLNVQKASTERITSNATSDLNIKVDGRAIVRGNEGVFIMGKTIEFHMGGNMELKAENSIILNGSVMVSTTRLPSSSSGDQLGSGDWVRYKLCMCADGTLFKVQVTSQNMGCQISDNPCGNTH [M1L] to KAAAAAAAAEQQSSNGPVKKSMREKAVERRSVNKEHNSNFKAGYIPIDEDRLHKTGLRGRKGNLAICVIILLFILAVINLIITLVIWAVIRIGPNGCDSMEFHESGLLRFKQVSDMGVIHPLYKSTVGGRRNENLVITGNNQPIVFQQGTTKLSVENNKTSITSDIGMQFFDPRTQNILFSTDYETHEFHLPSGVKSLNVQKASTERITSNATSDLNIKVDGRAIVRGNEGVFIMGKTIEFHMGGNMELKAENSIILNGSVMVSTTRLPSSSSGDQLGSGDWVRYKLCMCADGTLFKVQVTSQNMGCQISDNPCGNTH [M1K], the “SGCB cell-surface expression functional score (log10)” value rises from -1.26 to 0.14.

SAAAAAAAAEQQSSNGPVKKSMREKAVERRSVNKEHNSNFKAGYIPIDEDRLHKTGLRGRKGNLAICVIILLFILAVINLIITLVIWAVIRIGPNGCDSMEFHESGLLRFKQVSDMGVIHPLYKSTVGGRRNENLVITGNNQPIVFQQGTTKLSVENNKTSITSDIGMQFFDPRTQNILFSTDYETHEFHLPSGVKSLNVQKASTERITSNATSDLNIKVDGRAIVRGNEGVFIMGKTIEFHMGGNMELKAENSIILNGSVMVSTTRLPSSSSGDQLGSGDWVRYKLCMCADGTLFKVQVTSQNMGCQISDNPCGNTH [M1S] and HAAAAAAAAEQQSSNGPVKKSMREKAVERRSVNKEHNSNFKAGYIPIDEDRLHKTGLRGRKGNLAICVIILLFILAVINLIITLVIWAVIRIGPNGCDSMEFHESGLLRFKQVSDMGVIHPLYKSTVGGRRNENLVITGNNQPIVFQQGTTKLSVENNKTSITSDIGMQFFDPRTQNILFSTDYETHEFHLPSGVKSLNVQKASTERITSNATSDLNIKVDGRAIVRGNEGVFIMGKTIEFHMGGNMELKAENSIILNGSVMVSTTRLPSSSSGDQLGSGDWVRYKLCMCADGTLFKVQVTSQNMGCQISDNPCGNTH [M1H] are within 0.2 log units of each other in “SGCB cell-surface expression functional score (log10)” value: 0.07 for the first, 0.01 for the second.

First: WAAAAAAAAEQQSSNGPVKKSMREKAVERRSVNKEHNSNFKAGYIPIDEDRLHKTGLRGRKGNLAICVIILLFILAVINLIITLVIWAVIRIGPNGCDSMEFHESGLLRFKQVSDMGVIHPLYKSTVGGRRNENLVITGNNQPIVFQQGTTKLSVENNKTSITSDIGMQFFDPRTQNILFSTDYETHEFHLPSGVKSLNVQKASTERITSNATSDLNIKVDGRAIVRGNEGVFIMGKTIEFHMGGNMELKAENSIILNGSVMVSTTRLPSSSSGDQLGSGDWVRYKLCMCADGTLFKVQVTSQNMGCQISDNPCGNTH [M1W]
Second: TAAAAAAAAEQQSSNGPVKKSMREKAVERRSVNKEHNSNFKAGYIPIDEDRLHKTGLRGRKGNLAICVIILLFILAVINLIITLVIWAVIRIGPNGCDSMEFHESGLLRFKQVSDMGVIHPLYKSTVGGRRNENLVITGNNQPIVFQQGTTKLSVENNKTSITSDIGMQFFDPRTQNILFSTDYETHEFHLPSGVKSLNVQKASTERITSNATSDLNIKVDGRAIVRGNEGVFIMGKTIEFHMGGNMELKAENSIILNGSVMVSTTRLPSSSSGDQLGSGDWVRYKLCMCADGTLFKVQVTSQNMGCQISDNPCGNTH [M1T]
The “SGCB cell-surface expression functional score (log10)” value of the first is higher: -0.07 for the first, -1.08 for the second.

First: EAAAAAAAAEQQSSNGPVKKSMREKAVERRSVNKEHNSNFKAGYIPIDEDRLHKTGLRGRKGNLAICVIILLFILAVINLIITLVIWAVIRIGPNGCDSMEFHESGLLRFKQVSDMGVIHPLYKSTVGGRRNENLVITGNNQPIVFQQGTTKLSVENNKTSITSDIGMQFFDPRTQNILFSTDYETHEFHLPSGVKSLNVQKASTERITSNATSDLNIKVDGRAIVRGNEGVFIMGKTIEFHMGGNMELKAENSIILNGSVMVSTTRLPSSSSGDQLGSGDWVRYKLCMCADGTLFKVQVTSQNMGCQISDNPCGNTH [M1E]
Second: NAAAAAAAAEQQSSNGPVKKSMREKAVERRSVNKEHNSNFKAGYIPIDEDRLHKTGLRGRKGNLAICVIILLFILAVINLIITLVIWAVIRIGPNGCDSMEFHESGLLRFKQVSDMGVIHPLYKSTVGGRRNENLVITGNNQPIVFQQGTTKLSVENNKTSITSDIGMQFFDPRTQNILFSTDYETHEFHLPSGVKSLNVQKASTERITSNATSDLNIKVDGRAIVRGNEGVFIMGKTIEFHMGGNMELKAENSIILNGSVMVSTTRLPSSSSGDQLGSGDWVRYKLCMCADGTLFKVQVTSQNMGCQISDNPCGNTH [M1N]
The “SGCB cell-surface expression functional score (log10)” value of the first is lower: -0.03 for the first, 0.37 for the second.

Compared with PAAAAAAAAEQQSSNGPVKKSMREKAVERRSVNKEHNSNFKAGYIPIDEDRLHKTGLRGRKGNLAICVIILLFILAVINLIITLVIWAVIRIGPNGCDSMEFHESGLLRFKQVSDMGVIHPLYKSTVGGRRNENLVITGNNQPIVFQQGTTKLSVENNKTSITSDIGMQFFDPRTQNILFSTDYETHEFHLPSGVKSLNVQKASTERITSNATSDLNIKVDGRAIVRGNEGVFIMGKTIEFHMGGNMELKAENSIILNGSVMVSTTRLPSSSSGDQLGSGDWVRYKLCMCADGTLFKVQVTSQNMGCQISDNPCGNTH [M1P], IAAAAAAAAEQQSSNGPVKKSMREKAVERRSVNKEHNSNFKAGYIPIDEDRLHKTGLRGRKGNLAICVIILLFILAVINLIITLVIWAVIRIGPNGCDSMEFHESGLLRFKQVSDMGVIHPLYKSTVGGRRNENLVITGNNQPIVFQQGTTKLSVENNKTSITSDIGMQFFDPRTQNILFSTDYETHEFHLPSGVKSLNVQKASTERITSNATSDLNIKVDGRAIVRGNEGVFIMGKTIEFHMGGNMELKAENSIILNGSVMVSTTRLPSSSSGDQLGSGDWVRYKLCMCADGTLFKVQVTSQNMGCQISDNPCGNTH [M1I] is lower in “SGCB cell-surface expression functional score (log10)” value: 0.21 for the first, -1.06 for the second.

In the case of CAAAAAAAAEQQSSNGPVKKSMREKAVERRSVNKEHNSNFKAGYIPIDEDRLHKTGLRGRKGNLAICVIILLFILAVINLIITLVIWAVIRIGPNGCDSMEFHESGLLRFKQVSDMGVIHPLYKSTVGGRRNENLVITGNNQPIVFQQGTTKLSVENNKTSITSDIGMQFFDPRTQNILFSTDYETHEFHLPSGVKSLNVQKASTERITSNATSDLNIKVDGRAIVRGNEGVFIMGKTIEFHMGGNMELKAENSIILNGSVMVSTTRLPSSSSGDQLGSGDWVRYKLCMCADGTLFKVQVTSQNMGCQISDNPCGNTH [M1C], the “SGCB cell-surface expression functional score (log10)” value is reported as 0.25.

From the supplement of paper PMC10266784
